Measurements: patent US20120258099A1

Molecular target: RhoA in NIH3T3 cells (UniProt Q9QUI0)
Assay: cell-based or functional assay

RhoA in NIH3T3 cells, sequence (Q9QUI0 1-190 limits assumed): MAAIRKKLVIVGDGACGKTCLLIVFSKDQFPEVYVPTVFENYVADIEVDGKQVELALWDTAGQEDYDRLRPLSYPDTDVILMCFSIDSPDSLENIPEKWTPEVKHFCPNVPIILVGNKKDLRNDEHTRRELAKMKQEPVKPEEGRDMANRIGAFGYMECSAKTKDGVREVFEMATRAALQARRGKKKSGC

- RhoA activation in intact cells, pull-down of RhoA-GTP with GST-RBD (fold over control): 8
Substance: GFP-Tgat (from UniProt P42212 1-238; O75962 1862-2101) (enzyme)
